Values of other authors as cited in patent US7630838B2, “Method for identifying agents that interact with beta-site APP cleaving enzyme (BACE)” (American Home Products Corporation, priority 2000, dated 2009).
Non-standard residues stand in square brackets, D forms with d. No end group written: not given here. Sta = CC(C)C[C@H](N)[C@@H](O)CC(=O)O

Biological target: β-secretase enzyme (Homo sapiens, UniProt P56817)
Details: stated in words only; no number given

Chain of β-secretase enzyme (P56817 46-501): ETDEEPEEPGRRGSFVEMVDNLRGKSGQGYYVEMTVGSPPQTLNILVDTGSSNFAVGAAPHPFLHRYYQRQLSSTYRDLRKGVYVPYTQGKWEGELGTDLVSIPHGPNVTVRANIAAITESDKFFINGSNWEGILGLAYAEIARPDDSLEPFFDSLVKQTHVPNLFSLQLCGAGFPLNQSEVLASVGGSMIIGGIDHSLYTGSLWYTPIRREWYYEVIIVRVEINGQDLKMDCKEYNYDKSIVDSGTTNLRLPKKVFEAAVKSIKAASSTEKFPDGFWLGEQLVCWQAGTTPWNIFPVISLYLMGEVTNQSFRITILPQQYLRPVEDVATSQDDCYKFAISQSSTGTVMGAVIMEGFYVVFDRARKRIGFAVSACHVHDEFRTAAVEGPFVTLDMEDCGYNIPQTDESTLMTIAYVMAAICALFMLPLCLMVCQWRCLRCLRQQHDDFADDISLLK

## SER-GLU-VAL-ASN-Sta-VAL-ALA-GLU-PHE (SEVN[Sta]VAEF) [statine based inhibitor, based on the APP Swedish mutation]
  inhibit the β-secretase enzyme (efficiency): nanomolar efficiency
